We go through one molecule from paper PMC8420576 (The EMBO Journal, 2021).

For this assay, the target named is T1, SARS-CoV-2 Spike RBD (residues 334–527), C-terminal Avi-His6 tag, biotinylated (SARS-CoV-2, reference (Wuhan-Hu-1) …, UniProt P0DTC2, biotin on the Avi-tag).
T1 construct: also called biotinylated RBD; SARS‐CoV‐2 RBD‐loaded sensors
In words: BLI. The note with it: both partners purified.

B1: VHH antibody Re9F06 (VHH)
VHH: QVQLVESGGGLVQAGGSLRLSCAASGRTFSNDALGWFRQAPRKEREFVAAINWNSGTYYADSVKGRFTISRDNAKNTVYLQMNSLKPEDTAVYSCAAASDYGLPREDFLYDYWGQGTQVTVSS
notes: also called fold-promoter Re9F06; fold-promoting nanobody Re9F06
In turn, B1 came in with a Kd of 4 nM.
